From paper PMC9825591

How the values were obtained:
[1] = target: EPYC1-GFP (Chlamydomonas reinhardtii); test: fluorescence correlation spectroscopy (FCS); dilute phase of a phase-separated mixture, alongside condensates: EPYC1-GFP fixed at 20 nM, unlabeled EPYC1 1 to 4 μM, Rubisco 0.05 to 2 μM; laser aimed at a region away from condensates
[2] = target: EPYC1-GFP (Chlamydomonas reinhardtii); test: fluorescence correlation spectroscopy (FCS); 10 nM EPYC1-GFP with varying concentrations of unlabeled Rubisco in solution, one-phase region (no condensates); 20 mM Tris-HCl, 50 mM NaCl, pH 8.0; PEI-g-PEG coated coverslip; EPYC1-GFP diffusion coefficient against Rubisco concentration fitted with a quadratic binding equation; the authors consider the Kd an upper bound

In the case of “Ribulose-1,5-bisphosphate carboxylase/oxygenase (Rubisco) holoenzyme, wildtype (from UniProt P00877 3-475; P00873 46-185) (complex)”, the Rubisco holoenzymes per EPYC1-Rubisco complex [1] is reported as 1, the Kd [2] is reported as 29 nM and the Rubisco holoenzymes per EPYC1-Rubisco complex [2] is reported as 1.
